B1: dBr_Jan07_04404 (dsDNA)
DNA 1: ATCCTCTTGAAACACTACAAGTTTCGTTAAAAAAAGGTCTGTGTTCCGTTGTCCGTGCTG
DNA 2: CAGCACGGACAACGGAACACAGACCTTTTTTTAACGAAACTTGTAGTGTTTCAAGAGGAT
B2: dBr_Jan07_03085 (dsDNA)
DNA 1: TGTACGGGAGACCTTGCGGCGCCTACGAGCAACAACGTCTGTGTTCCGTTGTCCGTGCTG
DNA 2: CAGCACGGACAACGGAACACAGACGTTGTTGCTCGTAGGCGCCGCAAGGTCTCCCGTACA
B3: dBr_Jan07_41703 (dsDNA)
DNA 1: CATTCATGTTGAGATAACACGTGGTTGGGCGTTAATGTCTGTGTTCCGTTGTCCGTGCTG
DNA 2: CAGCACGGACAACGGAACACAGACATTAACGCCCAACCACGTGTTATCTCAACATGAATG
B4: dBr_Jan07_22296 (dsDNA)
DNA 1: TGAAGTGATTGTATGACCTTCTCCACTCTGCCGCCAGTCTGTGTTCCGTTGTCCGTGCTG
DNA 2: CAGCACGGACAACGGAACACAGACTGGCGGCAGAGTGGAGAAGGTCATACAATCACTTCA
B5: dBr_Jan07_19753 (dsDNA)
DNA 1: ACACGTGTATGTAACATGCGAGCACTTCGTGCGCCTGTCTGTGTTCCGTTGTCCGTGCTG
DNA 2: CAGCACGGACAACGGAACACAGACAGGCGCACGAAGTGCTCGCATGTTACATACACGTGT
B6: dBr_Jan07_06649 (dsDNA)
DNA 1: TAAAGGTCACCAATAGTCATTGCAGACTGGGACAATGTCTGTGTTCCGTTGTCCGTGCTG
DNA 2: CAGCACGGACAACGGAACACAGACATTGTCCCAGTCTGCAATGACTATTGGTGACCTTTA
B7: dBr_Jan07_19002 (dsDNA)
DNA 1: CTATGCCGGGATAGTTCACCATACGGTCACAGCTTTGTCTGTGTTCCGTTGTCCGTGCTG
DNA 2: CAGCACGGACAACGGAACACAGACAAAGCTGTGACCGTATGGTGAACTATCCCGGCATAG
B8: dBr_Jan07_28572 (dsDNA)
DNA 1: CGCTTTGCTCAGACGTCTGACTCGGACTATGAGAGGGTCTGTGTTCCGTTGTCCGTGCTG
DNA 2: CAGCACGGACAACGGAACACAGACCCTCTCATAGTCCGAGTCAGACGTCTGAGCAAAGCG
B9: dBr_Jan07_08379 (dsDNA)
DNA 1: CGCGGAAGCCTCTACGCTTGATTGTATCCAACACCCGTCTGTGTTCCGTTGTCCGTGCTG
DNA 2: CAGCACGGACAACGGAACACAGACGGGTGTTGGATACAATCAAGCGTAGAGGCTTCCGCG
B10: dBr_Jan07_34487 (dsDNA)
DNA 1: AACAGCCCACCCCTTATCAACGCGGCGCTTTCAGGCGTCTGTGTTCCGTTGTCCGTGCTG
DNA 2: CAGCACGGACAACGGAACACAGACGCCTGAAAGCGCCGCGTTGATAAGGGGTGGGCTGTT
B11: dBr_Jan07_21945 (dsDNA)
DNA 1: GCAGGGGTGTAGGACAACTCGGCGTCAGTGGGTAGTGTCTGTGTTCCGTTGTCCGTGCTG
DNA 2: CAGCACGGACAACGGAACACAGACACTACCCACTGACGCCGAGTTGTCCTACACCCCTGC
B12: dBr_Jan07_23467 (dsDNA)
DNA 1: ATTGGGGATGACAAGAGCTCTTCACAAAGAGGCCTTGTCTGTGTTCCGTTGTCCGTGCTG
DNA 2: CAGCACGGACAACGGAACACAGACAAGGCCTCTTTGTGAAGAGCTCTTGTCATCCCCAAT
B13: dBr_Jan07_30748 (dsDNA)
DNA 1: CCGCAAGGAGCGCACTAGCATCTCCTCTCTTGGGCCGTCTGTGTTCCGTTGTCCGTGCTG
DNA 2: CAGCACGGACAACGGAACACAGACGGCCCAAGAGAGGAGATGCTAGTGCGCTCCTTGCGG
B14: dBr_Jan07_16045 (dsDNA)
DNA 1: TACATATTGCCCTTTGGGTGAGTCACTCATTTTGGGGTCTGTGTTCCGTTGTCCGTGCTG
DNA 2: CAGCACGGACAACGGAACACAGACCCCAAAATGAGTGACTCACCCAAAGGGCAATATGTA
B15: dBr_Jan07_20880 (dsDNA)
DNA 1: GTCGGTTAACCTACTGTAACGTCGCTTTCGGTGTGTGTCTGTGTTCCGTTGTCCGTGCTG
DNA 2: CAGCACGGACAACGGAACACAGACACACACCGAAAGCGACGTTACAGTAGGTTAACCGAC
B16: dBr_Jan07_06986 (dsDNA)
DNA 1: CAATAGACGTTGCAATTTGGCCTGACAGCTACGGAAGTCTGTGTTCCGTTGTCCGTGCTG
DNA 2: CAGCACGGACAACGGAACACAGACTTCCGTAGCTGTCAGGCCAAATTGCAACGTCTATTG
B17: dBr_Jan07_28323 (dsDNA)
DNA 1: GGCTCAAGACAGATTGCAGCTTTGACAACCGAATTCGTCTGTGTTCCGTTGTCCGTGCTG
DNA 2: CAGCACGGACAACGGAACACAGACGAATTCGGTTGTCAAAGCTGCAATCTGTCTTGAGCC
B18: dBr_Jan07_13143 (dsDNA)
DNA 1: AGCTGTTGGTGCATCCTATGTCGAAGACTGGCGGCGGTCTGTGTTCCGTTGTCCGTGCTG
DNA 2: CAGCACGGACAACGGAACACAGACCGCCGCCAGTCTTCGACATAGGATGCACCAACAGCT
B19: dBr_Jan07_08887 (dsDNA)
DNA 1: ATAGCCGCGTGGCATATGGTCCGGCGACCCCCTCTCGTCTGTGTTCCGTTGTCCGTGCTG
DNA 2: CAGCACGGACAACGGAACACAGACGAGAGGGGGTCGCCGGACCATATGCCACGCGGCTAT
B20: dBr_Jan07_22655 (dsDNA)
DNA 1: GCCCACCCACCGAAATCGTCAATAGGCCTCACAGAAGTCTGTGTTCCGTTGTCCGTGCTG
DNA 2: CAGCACGGACAACGGAACACAGACTTCTGTGAGGCCTATTGACGATTTCGGTGGGTGGGC
B21: dBr_Jan07_40185 (dsDNA)
DNA 1: AGAATCAAGGTGAGCGAGCAAGGCTTAAAATCCCGCGTCTGTGTTCCGTTGTCCGTGCTG
DNA 2: CAGCACGGACAACGGAACACAGACGCGGGATTTTAAGCCTTGCTCGCTCACCTTGATTCT
B22: dBr_Jan07_34312 (dsDNA)
DNA 1: TTCAGACTGGCGCATGGTGCCCTCTGAACCCTGAATGTCTGTGTTCCGTTGTCCGTGCTG
DNA 2: CAGCACGGACAACGGAACACAGACATTCAGGGTTCAGAGGGCACCATGCGCCAGTCTGAA
B23: dBr_Jan07_17054 (dsDNA)
DNA 1: GTTCTCCCTTGATTCAAGTATAACAAGATACCCATCGTCTGTGTTCCGTTGTCCGTGCTG
DNA 2: CAGCACGGACAACGGAACACAGACGATGGGTATCTTGTTATACTTGAATCAAGGGAGAAC
B24: dBr_Jan07_30747 (dsDNA)
DNA 1: GGTACTACGATATAGGGATTACGCACCGCAAGGAGCGTCTGTGTTCCGTTGTCCGTGCTG
DNA 2: CAGCACGGACAACGGAACACAGACGCTCCTTGCGGTGCGTAATCCCTATATCGTAGTACC
B25: dBr_Jan07_00680 (dsDNA)
DNA 1: ACACCAGCGCGTCAGGAGTTGTGTGAACCCACACCCGTCTGTGTTCCGTTGTCCGTGCTG
DNA 2: CAGCACGGACAACGGAACACAGACGGGTGTGGGTTCACACAACTCCTGACGCGCTGGTGT
B26: dBr_Jan07_16988 (dsDNA)
DNA 1: CCACCTAGGGGATACTCGCAAGGTCGGGAAACCACCGTCTGTGTTCCGTTGTCCGTGCTG
DNA 2: CAGCACGGACAACGGAACACAGACGGTGGTTTCCCGACCTTGCGAGTATCCCCTAGGTGG
B27: dBr_Jan07_11873 (dsDNA)
DNA 1: CCAGAGTTCGTAGGCAAAAACCCGCGACGGTATGCCGTCTGTGTTCCGTTGTCCGTGCTG
DNA 2: CAGCACGGACAACGGAACACAGACGGCATACCGTCGCGGGTTTTTGCCTACGAACTCTGG
B28: dBr_Jan07_10250 (dsDNA)
DNA 1: CCGCTCCACGAGCCACGACCGAATACCGTACACGTGGTCTGTGTTCCGTTGTCCGTGCTG
DNA 2: CAGCACGGACAACGGAACACAGACCACGTGTACGGTATTCGGTCGTGGCTCGTGGAGCGG
B29: dBr_Jan07_04854 (dsDNA)
DNA 1: CTGGGTTGGCCCTGCATTGGATACCTTTGAGCTCTCGTCTGTGTTCCGTTGTCCGTGCTG
DNA 2: CAGCACGGACAACGGAACACAGACGAGAGCTCAAAGGTATCCAATGCAGGGCCAACCCAG
B30: dBr_Jan07_40846 (dsDNA)
DNA 1: CCAGATCAACGCTTGCTAAATAAACGCAGCAAACTGGTCTGTGTTCCGTTGTCCGTGCTG
DNA 2: CAGCACGGACAACGGAACACAGACCAGTTTGCTGCGTTTATTTAGCAAGCGTTGATCTGG
B31: dBr_Jan07_39257 (dsDNA)
DNA 1: CAAACAGGCCGGTCTCTCGGTACAGTCACGTGTTCAGTCTGTGTTCCGTTGTCCGTGCTG
DNA 2: CAGCACGGACAACGGAACACAGACTGAACACGTGACTGTACCGAGAGACCGGCCTGTTTG
B32: dBr_Jan07_08177 (dsDNA)
DNA 1: GGAGGTCTAACTGGGAACGGCAATGCGCCCATATTTGTCTGTGTTCCGTTGTCCGTGCTG
DNA 2: CAGCACGGACAACGGAACACAGACAAATATGGGCGCATTGCCGTTCCCAGTTAGACCTCC
B33: dBr_Jan07_41473 (dsDNA)
DNA 1: TACTCGAAGCGTAAAAAAGACCGGGTAGGAAGCCAAGTCTGTGTTCCGTTGTCCGTGCTG
DNA 2: CAGCACGGACAACGGAACACAGACTTGGCTTCCTACCCGGTCTTTTTTACGCTTCGAGTA

Target: WT Max (Homo sapiens, UniProt P61244-2 13-93, M65Nle, norleucine written as M; other non-natural residues written as X)
Assay: PBM; 50-200 nM protein; PBS, 2% milk, BSA, salmon testes DNA, 0.02% Triton X-100
Details: chain copies: 2; label: surface-attached array probe

WT Max, sequence (P61244 other isoform, or with tags, fused parts or gaps M65Nle): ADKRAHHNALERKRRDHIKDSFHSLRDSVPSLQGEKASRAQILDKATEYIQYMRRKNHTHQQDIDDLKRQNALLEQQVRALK

| Binder | binding signal |
| --- | --- |
| B1 | -0.11 robust z of log adjusted intensity (ours), mean of two arrays |
| B2 | -0.59 robust z of log adjusted intensity (ours), mean of two arrays |
| B3 | 5.69 robust z of log adjusted intensity (ours), mean of two arrays |
| B4 | -0.32 robust z of log adjusted intensity (ours), mean of two arrays |
| B5 | 3.43 robust z of log adjusted intensity (ours), mean of two arrays |
| B6 | -0.27 robust z of log adjusted intensity (ours), mean of two arrays |
| B7 | -0.39 robust z of log adjusted intensity (ours), mean of two arrays |
| B8 | -0.41 robust z of log adjusted intensity (ours), mean of two arrays |
| B9 | -0.26 robust z of log adjusted intensity (ours), mean of two arrays |
| B10 | -0.28 robust z of log adjusted intensity (ours), mean of two arrays |
| B11 | -0.45 robust z of log adjusted intensity (ours), mean of two arrays |
| B12 | -0.43 robust z of log adjusted intensity (ours), mean of two arrays |
| B13 | -0.64 robust z of log adjusted intensity (ours), mean of two arrays |
| B14 | -0.17 robust z of log adjusted intensity (ours), mean of two arrays |
| B15 | -0.14 robust z of log adjusted intensity (ours), mean of two arrays |
| B16 | -0.17 robust z of log adjusted intensity (ours), mean of two arrays |
| B17 | -0.41 robust z of log adjusted intensity (ours), mean of two arrays |

| Binder | binding signal |
| --- | --- |
| B18 | -0.67 robust z of log adjusted intensity (ours), mean of two arrays |
| B19 | 7 robust z of log adjusted intensity (ours), mean of two arrays |
| B20 | -0.54 robust z of log adjusted intensity (ours), mean of two arrays |
| B21 | -0.61 robust z of log adjusted intensity (ours), mean of two arrays |
| B22 | -0.02 robust z of log adjusted intensity (ours), mean of two arrays |
| B23 | -0.28 robust z of log adjusted intensity (ours), mean of two arrays |
| B24 | -0.4 robust z of log adjusted intensity (ours), mean of two arrays |
| B25 | -0.81 robust z of log adjusted intensity (ours), mean of two arrays |
| B26 | -0.45 robust z of log adjusted intensity (ours), mean of two arrays |
| B27 | -0.41 robust z of log adjusted intensity (ours), mean of two arrays |
| B28 | 4.92 robust z of log adjusted intensity (ours), mean of two arrays |
| B29 | -0.33 robust z of log adjusted intensity (ours), mean of two arrays |
| B30 | -0.51 robust z of log adjusted intensity (ours), mean of two arrays |
| B31 | 4.93 robust z of log adjusted intensity (ours), mean of two arrays |
| B32 | -0.41 robust z of log adjusted intensity (ours), mean of two arrays |
| B33 | -0.29 robust z of log adjusted intensity (ours), mean of two arrays |

Source: PMC12636033, “Chemical Engineering of Transcription Factors Uncovered Cell-Permeable μMax Modulators”
